Legend:
[1] = biological target: P-eIF2α (human eIF2α amino acids 1-185 solubility mutant, C-terminal His6-tag, phosphorylated on Ser51) (human) (UniProt P05198); experiment: thermophoresis (MST), labelled P-eIF2α, unlabelled PP1c^D95A titrated
[2] = biological target: PP1c (human PP1cα amino acids 7-330, N-terminal Thio6/His6 tag) (human) (UniProt P62136); experiment: thermophoresis (MST), labelled PP1c, unlabelled R15A titrated
[3] = biological target: P-eIF2α (human eIF2α amino acids 1-185 solubility mutant, C-terminal His6-tag, phosphorylated on Ser51) (human) (UniProt P05198); experiment: thermophoresis
Target sequence in this assay (P05198 other isoform, or with tags, fused parts or gaps mutant): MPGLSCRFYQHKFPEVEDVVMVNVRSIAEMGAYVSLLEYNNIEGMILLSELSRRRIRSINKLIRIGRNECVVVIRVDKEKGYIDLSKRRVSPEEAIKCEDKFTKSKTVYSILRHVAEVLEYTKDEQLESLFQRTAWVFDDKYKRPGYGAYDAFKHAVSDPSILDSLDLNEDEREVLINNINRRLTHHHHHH

[4] = biological target: P-eIF2α (human eIF2α amino acids 1-185 solubility mutant, C-terminal His6-tag, phosphorylated on Ser51) (human) (UniProt P05198); experiment: thermophoresis (MST), labelled P-eIF2α with 10 µM R15A, unlabelled PP1c^D95A titrated
[5] = biological target: PP1c (human PP1cα amino acids 7-330, N-terminal Thio6/His6 tag) (human) (UniProt P62136); experiment: thermophoresis
[6] = biological target: P-eIF2α (human eIF2α amino acids 1-185 solubility mutant, C-terminal His6-tag, phosphorylated on Ser51) (human) (UniProt P05198); experiment: thermophoresis (MST), labelled P-eIF2α with 10 µM R15B, unlabelled PP1c^D95A titrated

PP1c (human PP1cα amino acids 7-330, N-terminal Thio6/His6 tag) (human), sequence (P62136 other isoform, or with tags, fused parts or gaps): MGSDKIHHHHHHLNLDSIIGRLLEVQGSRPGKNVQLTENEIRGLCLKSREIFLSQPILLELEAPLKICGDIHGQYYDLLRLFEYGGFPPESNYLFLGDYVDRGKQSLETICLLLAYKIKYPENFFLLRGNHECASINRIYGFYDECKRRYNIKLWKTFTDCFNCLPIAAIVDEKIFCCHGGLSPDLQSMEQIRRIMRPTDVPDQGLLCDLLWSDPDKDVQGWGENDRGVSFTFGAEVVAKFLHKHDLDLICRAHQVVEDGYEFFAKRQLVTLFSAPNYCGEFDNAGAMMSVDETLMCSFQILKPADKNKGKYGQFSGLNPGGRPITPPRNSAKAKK

How did the Kd [1] turn out when “PP1c^D95A (human PP1cα amino acids 7-330, D95A, N-terminal Thio6/His6 tag) (from UniProt P62136 7-330) (enzyme)” was run?
Its Kd is 650 nM.

With “R15A (human PPP1R15A amino acids 325-636, N-terminal MBP-tag, C-terminal His6-tag) (from UniProt O75807 325-636)” as the substance, how does the Kd [2] read?
Its Kd is 60 nM.

And the Kd [3]?
The Kd was 340 nM.

For “R15A-PP1c^D95A holophosphatase complex (from UniProt O75807 325-636; P62136 7-330)”, which fold higher affinity than the isolated PP1c^D95A [4] is on record?
Its fold higher affinity than the isolated PP1c^D95A is 5.4 times.

For “R15A^C (human PPP1R15A amino acids 513-636, N-terminal MBP-tag, C-terminal His6-tag) (from UniProt O75807 513-636)”, which Kd [5] is on record?
Its Kd is 190 nM.

“R15A^N (human PPP1R15A amino acids 325-512, N-terminal MBP-tag, C-terminal His6-tag) (from UniProt O75807 325-512)” was tested. Which Kd [3] did it give?
The Kd was 440 nM.

With “R15B (human PPP1R15B amino acids 340-698, N-terminal MBP-tag, C-terminal His6-tag) (from UniProt Q5SWA1 340-698)” as the substance, how does the Kd [3] read?
The Kd was 550 nM.

How did the fold higher affinity than the isolated PP1c^D95A [6] turn out when “R15B-PP1c^D95A holophosphatase complex (from UniProt P0AEX9 27-392; Q5SWA1 340-698; P62136 7-330)” was run?
The fold higher affinity than the isolated PP1c^D95A was 3 times.

“R15B^N (human PPP1R15B amino acids 340-635, N-terminal MBP-tag, C-terminal His6-tag) (from UniProt Q5SWA1 340-635)” was tested. Which Kd [3] did it give?
Its Kd is 530 nM.

Reference: patent US20200199647A1, “ASSAY FOR SCREENING MODULATORS OF HOLOPHOSPHATASE ACTIVITY” (UNITED KINGDOM RESEARCH AND INNOVATION, priority 2017, published 2020)
